Reference: the Immune Epitope Database (IEDB)

Legend:
HLA-B*07:02 [1] = assay: IEDB peptide-MHC binding, purified MHC/direct/fluorescence; filed as Kd, often an IC50 or EC50 that approximates it; ≥ and ≤ were set here for values at or beyond the usual limits of such assays
HLA-B*15:01 [2] = assay: as above
HLA-B*51:01 = assay: as above; details: source organism: Mycobacterium tuberculosis
HLA-A*32:07 = assay: IEDB peptide-MHC binding, purified MHC/competitive/fluorescence; filed as Kd, often an IC50 or EC50 that approximates it; ≥ and ≤ were set here for values at or beyond the usual limits of such assays
HLA-B*15:42 = assay: as above
HLA-B*45:06 = assay: as above
HLA-C*04:01 = assay: as above
HLA-A*01:01 [3] = assay: IEDB peptide-MHC binding, purified MHC/direct/fluorescence; filed as Kd, often an IC50 or EC50 that approximates it; ≥ and ≤ were set here for values at or beyond the usual limits of such assays
HLA-A*02:01 [4] = assay: as above
HLA-A*03:01 = assay: as above; details: source organism: Influenza A virus (A/Duck/Shantou/2134/00(H9N2))
HLA-A*11:01 = assay: as above
HLA-A*24:02 [5] = assay: as above; details: source organism: Influenza A virus (A/Duck/Shantou/2134/00(H9N2))
HLA-A*26:01 = assay: as above; details: source organism: Influenza A virus (A/Taiwan/2/2006(H1N1))
HLA-A*69:01 = assay: as above
HLA-B*08:01 = assay: as above; details: source organism: Influenza A virus (A/Duck/Shantou/2134/00(H9N2))
HLA-B*08:02 = assay: as above; details: source organism: Influenza A virus (A/Taiwan/2/2006(H1N1))
HLA-B*27:05 = assay: as above
HLA-B*40:01 [6] = assay: as above
HLA-B*44:02 = assay: as above; details: source organism: Influenza A virus (A/Duck/Shantou/2134/00(H9N2))
HLA-B*58:01 = assay: as above
HLA-A*31:01 = assay: IEDB peptide-MHC binding, purified MHC/competitive/fluorescence; filed as Kd, often an IC50 or EC50 that approximates it; ≥ and ≤ were set here for values at or beyond the usual limits of such assays; details: source organism: dengue virus type 1
HLA-B*83:01 = assay: as above
HLA-A*30:01 = assay: IEDB peptide-MHC binding, purified MHC/competitive/radioactivity; filed as Kd, often an IC50 or EC50 that approximates it; ≥ and ≤ were set here for values at or beyond the usual limits of such assays; details: source organism: Dengue virus 1 Brazil/97-11/1997
HLA-A*32:01 = assay: as above; details: source organism: Dengue virus 1 Brazil/97-11/1997
HLA-A*01:01 [7] = assay: IEDB peptide-MHC binding, purified MHC/competitive/fluorescence; ≥ and ≤ were set here for values at or beyond the usual limits of such assays; details: source organism: Zaire ebolavirus
HLA-A*24:02 [8] = assay: as above; details: source organism: Zaire ebolavirus
HLA-A*26:03 = assay: IEDB peptide-MHC binding, purified MHC/direct/fluorescence; filed as Kd, often an IC50 or EC50 that approximates it; ≥ and ≤ were set here for values at or beyond the usual limits of such assays
HLA-A*68:02 [9] = assay: as above; details: source organism: Buffalopox virus
HLA-B*39:01 = assay: as above; details: source organism: Buffalopox virus
HLA-B*46:01 = assay: as above; details: source organism: Buffalopox virus
HLA-B*48:01 = assay: as above; details: source organism: Buffalopox virus
HLA-B*57:01 = assay: as above; details: source organism: Buffalopox virus
HLA-A*26:02 = assay: IEDB peptide-MHC binding, purified MHC/competitive/fluorescence; filed as Kd, often an IC50 or EC50 that approximates it; ≥ and ≤ were set here for values at or beyond the usual limits of such assays; details: source organism: Variola virus
HLA-B*07:02 [10] = assay: as above; details: source organism: Variola virus
HLA-B*15:17 = assay: as above; details: source organism: Variola virus
HLA-B*18:01 = assay: as above; details: source organism: Variola virus
HLA-B*35:01 = assay: as above; details: source organism: Variola virus
HLA-A*68:02 [11] = assay: as above; details: source organism: Francisella tularensis subsp. tularensis FSC198
HLA-B*15:01 [12] = assay: as above; details: source organism: Yersinia pestis Nepal516
HLA-B*40:01 [13] = assay: as above; details: source organism: Yersinia pestis Nepal516
HLA-A*02:01 [14] = assay: as above; details: source organism: Toxoplasma gondii GT1
HLA-A*02:06 = assay: as above; details: source organism: Toxoplasma gondii GT1
HLA-A*02:01 [15] = assay: IEDB peptide-MHC binding, purified MHC/competitive/fluorescence; ≥ and ≤ were set here for values at or beyond the usual limits of such assays; details: source organism: Zaire ebolavirus
HLA-B*15:01 [16] = assay: as above; details: source organism: Zaire ebolavirus
[17] = source organism: Mycobacterium tuberculosis
[18] = source organism: Influenza A virus (A/Duck/Shantou/2134/00(H9N2))
[19] = source organism: dengue virus type 1
[20] = source organism: Buffalopox virus
[21] = source organism: Francisella tularensis subsp. tularensis FSC198
[22] = source organism: Yersinia pestis Nepal516

ALRQARAAF
Kd (HLA-B*07:02 [1]; [17]): 0.0089 µM
Kd (HLA-B*15:01 [2]; source organism: Mycobacterium tuberculosis str. Haarlem): 0.012 µM
Kd (HLA-B*51:01): ≥ 20 µM
Kd (HLA-A*32:07; [17]): 0.157 µM
Kd (HLA-B*15:42; [17]): ≥ 5 µM
Kd (HLA-B*45:06; [17]): ≥ 5 µM
Kd (HLA-C*04:01; [17]): ≥ 5 µM

ASRGLWDSF
Kd (HLA-A*01:01 [3]; [18]): ≥ 20 µM
Kd (HLA-A*02:01 [4]; [18]): ≥ 20 µM
Kd (HLA-A*03:01): ≥ 20 µM
Kd (HLA-A*11:01; [18]): ≥ 20 µM
Kd (HLA-A*24:02 [5]): ≥ 20 µM
Kd (HLA-A*26:01): ≥ 20 µM
Kd (HLA-A*69:01; [18]): ≥ 20 µM
Kd (HLA-B*07:02 [1]; [18]): ≥ 20 µM
Kd (HLA-B*08:01): ≥ 20 µM
Kd (HLA-B*08:02): ≥ 20 µM
Kd (HLA-B*15:01 [2]; source organism: Influenza A virus (A/Puerto Rico/8/34/Mount Sinai(H1N1))): 0.891 µM
Kd (HLA-B*27:05; [18]): ≥ 20 µM
Kd (HLA-B*40:01 [6]; [18]): ≥ 20 µM
Kd (HLA-B*44:02): ≥ 20 µM
Kd (HLA-B*58:01; [18]): ≥ 5 µM

ATYGWNLVK
Kd (HLA-A*11:01; source organism: Dengue virus 1 Singapore/S275/1990): ≤ 0.001 µM
Kd (HLA-A*31:01): 0.00148 µM
Kd (HLA-A*32:07; [19]): 0.0774 µM
Kd (HLA-B*15:42; [19]): ≥ 5 µM
Kd (HLA-B*45:06; [19]): ≥ 5 µM
Kd (HLA-B*83:01; [19]): ≥ 5 µM
Kd (HLA-A*30:01): 0.212 µM
Kd (HLA-A*32:01): 0.755 µM

HKEGAFFLY
IC50 (HLA-A*01:01 [7]): ≥ 136 µM
IC50 (HLA-A*24:02 [8]): ≥ 149 µM

HVFVCGNNM
Kd (HLA-A*26:03; source organism: Fowlpox virus): 0.076 µM

IHSDQLSKF
Kd (HLA-A*01:01 [3]; [20]): ≥ 20 µM
Kd (HLA-A*02:01 [4]; [20]): ≥ 20 µM
Kd (HLA-A*26:03; source organism: Variola virus): ≥ 20 µM
Kd (HLA-A*68:02 [9]): ≥ 20 µM
Kd (HLA-A*69:01; [20]): ≥ 20 µM
Kd (HLA-B*15:01 [2]; [20]): ≥ 20 µM
Kd (HLA-B*27:05; [20]): ≥ 20 µM
Kd (HLA-B*39:01): ≥ 20 µM
Kd (HLA-B*40:01 [6]; [20]): ≥ 20 µM
Kd (HLA-B*46:01): ≥ 20 µM
Kd (HLA-B*48:01): ≥ 20 µM
Kd (HLA-B*57:01): ≥ 20 µM
Kd (HLA-B*58:01; [20]): ≥ 20 µM
Kd (HLA-A*26:02): 2.68 µM
Kd (HLA-B*07:02 [10]): ≥ 20 µM
Kd (HLA-B*15:17): ≥ 20 µM
Kd (HLA-B*18:01): 4.57 µM
Kd (HLA-B*35:01): 2.38 µM

MGAGLVFPI
Kd (HLA-A*32:07; [21]): 0.0448 µM
Kd (HLA-A*68:02 [11]): ≤ 0.0001 µM
Kd (HLA-B*15:42; [21]): ≥ 5 µM
Kd (HLA-B*45:06; [21]): ≥ 5 µM
Kd (HLA-B*83:01; [21]): ≥ 5 µM
Kd (HLA-C*04:01; [21]): ≥ 5 µM

VEMQLAVVI
Kd (HLA-B*15:01 [12]): ≥ 20 µM
Kd (HLA-B*15:42; [22]): ≥ 5 µM
Kd (HLA-B*40:01 [13]): 0.0079 µM
Kd (HLA-B*45:06; [22]): ≥ 5 µM
Kd (HLA-B*83:01; [22]): ≥ 5 µM
Kd (HLA-C*04:01; [22]): ≥ 5 µM

VLGSWPVDL
Kd (HLA-A*02:01 [14]): 0.209 µM
Kd (HLA-A*02:06): 2.46 µM

YLEGHGFRF
IC50 (HLA-A*01:01 [7]): ≥ 76.3 µM
IC50 (HLA-A*02:01 [15]): 0.403 µM
IC50 (HLA-A*24:02 [8]): 0.18 µM
IC50 (HLA-B*15:01 [16]): 17.6 µM
